Values quoted from earlier work, collected in PMC10816394, “Radiosynthesis and Bioevaluation of ^99mTc-Labeled Isocyanide Ubiquicidin 29-41 Derivatives as Potential Agents for Bacterial Infection Imaging” (International Journal of Molecular Sciences, 2024).
No end group written: not given here.

Tests used:
[1] = test system: bacterial infection sites; design: method as in PMID 14960656, PMID 10774881, PMID 12900285, PMID 15093821, PMID 11337578; conditions: literature values; cited from earlier work
[2] = in vivo; cited from earlier work

## [^99mTc]Tc-UBI 29-41: directly ^99mTc-labeled UBI 29-41, reported bacterial infection tracer; structure speculated (TGRAKRRMQYNRR; also: directly 99mTc-labeled, no chelator, structure speculative; UniProt P62861 103-115, looked up, fragment)
[1]
  target-to-nontarget ratio at bacterial infection sites: 1.7–4.7
[2]
  target-to-nontarget ratio at sterile inflammation sites: 1.1–1.2
